Test results reported in PMC7315409 (Science translational medicine, 2020).

Molecular target: T1, recombinant high mobility group box 1 (HMGB1) (human, UniProt P09429 1-215)
T1 sequence (looked up): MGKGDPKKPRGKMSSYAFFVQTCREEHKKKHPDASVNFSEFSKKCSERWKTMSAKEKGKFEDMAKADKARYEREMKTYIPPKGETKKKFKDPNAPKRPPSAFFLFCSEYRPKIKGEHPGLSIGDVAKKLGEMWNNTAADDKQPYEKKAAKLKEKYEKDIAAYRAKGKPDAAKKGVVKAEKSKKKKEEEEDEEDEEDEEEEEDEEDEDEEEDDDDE
Experiment: radioligand binding

IC50: 500 to 550 nM
B1: purified syndecan-1 (natural protein)
chain: QIVAVNVPPEDQDGSGDDSDNFSGSGTGALPDTLSRQTPSTWKDVWLLTATPTAPEPTSSNTETAFTSVLPAGEKPEEGEPVLHVEAEPGFTARDKEKEVTTRPRETVQLPITQRASTVRVTTAQAAVTSHPHGGMQPGLHETSAPTAPGQPDHQPPRVEGGGTSVIKEVVEDGTANQLPAGEGSGEQDFTFETSGENTAVAAVEPGLRNQPPVDEGATGASQSLLDRKEVLG
modifications: heparan sulfate (HS) polysaccharide side chains on the core protein
